Experimental data taken from paper PMC10022642, “Abscisic acid promotes auxin biosynthesis to inhibit primary root elongation in rice”.
Positions count from the first letter of the chain named.

T1: GST-OsbZIP46 (Oryza sativa, UniProt Q69TW5 1-324)
T1 sequence: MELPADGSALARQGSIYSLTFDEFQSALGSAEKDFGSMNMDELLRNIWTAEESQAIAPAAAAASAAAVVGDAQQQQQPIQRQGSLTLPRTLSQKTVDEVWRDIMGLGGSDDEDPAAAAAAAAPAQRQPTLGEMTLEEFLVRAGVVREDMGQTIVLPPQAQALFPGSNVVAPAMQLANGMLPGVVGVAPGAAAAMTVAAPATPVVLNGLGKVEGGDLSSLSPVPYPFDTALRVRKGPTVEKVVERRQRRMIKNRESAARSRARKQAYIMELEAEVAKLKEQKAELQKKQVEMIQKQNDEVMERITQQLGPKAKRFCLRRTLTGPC

B1: YUC8-Probe (YUC8/REIN7 promoter, P3 G-box) (dsDNA)
DNA 1: GTTGGAAAGCGTATTTTATTCGCAACGTGCGGTTCTTCCAGTTTCTCGGC
DNA 2: GCCGAGAAACTGGAAGAACCGCACGTTGCGAATAAAATACGCTTTCCAAC
B2: YUC8-Mutant Probe (dsDNA)
DNA 1: B1 DNA 1 with C26A, G27A, T28A, G29A
DNA 2: B1 DNA 2 with C22T, A23T, C24T, G25T

How the values were obtained:
GST-OsbZIP46 [1] = biological target: T1, GST-OsbZIP46; assay: EMSA; LightShift Chemiluminescent EMSA kit, 20 min at room temperature, 5% native polyacrylamide gel; buffer, salt and pH not stated; details: protein: recombinant; tags: GST (N-terminal, pGEX-6p-1); chain copies: 2
GST-OsbZIP46 [2] = biological target: T1, GST-OsbZIP46; assay: EMSA; labeled mutant probe; LightShift Chemiluminescent EMSA kit, 20 min at room temperature, 5% native polyacrylamide gel; buffer, salt and pH not stated; details: protein: recombinant; tags: GST (N-terminal, pGEX-6p-1); chain copies: 2; label: 3' biotin

Row | Binder | binding result (GST-OsbZIP46 [1]) | binding result (GST-OsbZIP46 [2])
1 | B1 | binds | 
2 | B2 |  | no binding
